Assay results: doi:10.1101/2024.02.06.578578

Target: SkSGLc, SkSGL from Sanguibacter keddieii (KEGG locus tag, Sked_30460) with a C-terminal His6-tag (Sanguibacter keddieii)
Assay: SEC

stoichiometry N: 2
Substance: SkSGLc, SkSGL from Sanguibacter keddieii (KEGG locus tag, Sked_30460) with a C-terminal His6-tag (enzyme)
